# Measured values: patent US20060062797A1 (RESEARCH FOUNDATION OF STATE UNIVERSITY OF NEW YORK AT …, published 2006)
# No end group written: not given here.
# B1: truncated glycophorin A peptide GpA70-86 (SEQ ID NO: 158) (peptide)
# peptide: EPEITLIIFGVMAGVIG
# modifications: not fully specified
# notes: 17-residue fragment of glycophorin A, residues 70-86, that forms fibrils; NMR samples were 13C-labelled at Gly79, Gly83 or the Met81 methyl; also called truncated GpA; glycophorin A transmembrane peptide fragment
# Tests used:
# [1] = target: the molecule itself; assay: 2D solid-state NMR (DARR) on fibrils, self-association
# [2] = target: Aβ1-42 peptide (SEQ ID NO: 157) (Homo sapiens (Human), UniProt P05067 672-713); assay: cell-based or functional assay
Binder,binding result [1],"thioflavin T fluorescence, inhibition of fibrillization at Aβ1-42:I1 molar ratio 1:20 [2]"
B1,binds,–
RGTFEGKF-NH2 (not fully specified; printed as RGTFEGKF-NH2) [amyloid fibril inhibitor protein RGTFEGKF-NH2 (SEQ ID NO: 1)],–,70%
